Positions count from the first letter of the chain named. Numbers in names are those of the source.
Molecular target: T1, ElpQ_(181–343)
T1 chain: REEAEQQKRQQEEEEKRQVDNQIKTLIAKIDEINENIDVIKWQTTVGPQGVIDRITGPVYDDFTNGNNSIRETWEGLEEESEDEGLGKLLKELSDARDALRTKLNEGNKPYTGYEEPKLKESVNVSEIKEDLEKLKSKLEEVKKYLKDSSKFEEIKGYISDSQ
Test: SPR
Conditions: chain shown with the change; steady-state response at the highest analyte concentration plotted (about 5e-7 M on the x axis); ElpQ181-343 immobilized, C1s construct injected; parent: est. 140; read off a plot

B1: activated C1s–CCP1–CCP2–SP, P09871 E326A; D358A; K575A; R576A; R581A; K583A (protein)
chain: EPTMYGEILSPNYPQAYPSEVEKSWDIEVPEGYGIHLYFTHLDIELSENCAYDSVQIISGDTEEGRLCGQRSSNNPHSPIVEEFQVPYNKLQVIFKSDFSNEERFTGFAAYYVATDINECTDFVDVPCSHFCNNFIGGYFCSCPPEYFLHDDMKNCGVNCSGDVFTALIGEIASPNYPKPYPENSRCEYQIRLEKGFQVVVTLRREDFDVEAADSAGNCLDSLVFVAGDRQFGPYCGHGFPGPLNIETKSNALDIIFQTDLTGQKKGWKLRYHGDPMPCPKEDTPNSVWEPAKAKYVFRDVVQITCLDGFAVVEGRVGATSFYSTCQSNGKWSNSKLKCQPVACGIPESIENGKVEDPESTLFGSVIRYTCEEPYYYMENGGGGEYHCAGNGSWVNEVLGPELPKCVPVCGVPREPFEEKQRIIGGSDADIKNFPWQVFFDNPWAGGALINEYWVLTAAHVVEGNREPTMYVGSTSVQTSRLAKSKMLTPEHVFIHPGWKLLEVPEGRTNFDNDIALVRLKDPVKMGPTVSPICLPGTSSDYNLMDGDLGLISGWGRTEAADRAVALAAARLPVAPLRKCKEVKVEKPTADAEAYVFTPNMICAGGEKGMDSCKGDSGGAFAVQDPNDKTKFYAAGLVSWGPQCGTYGLYTRVKNYVDWIMKTMQENSTPRED
For B1, the response was 0 RU.

B2: activated C1s–CCP1–CCP2–SP, P09871 K575A; R576A; R581A; K583A (protein)
chain: B1 chain with A311E, A343D
Binder B2 has a response of 8 RU.

— article PMC9637899
